{
  "source": "paper PMC5605561",
  "origin": "cited, not measured here",
  "molecular_target": "B2R (Homo sapiens) (UniProt P30411)",
  "sequence (P30411 whole entry)": "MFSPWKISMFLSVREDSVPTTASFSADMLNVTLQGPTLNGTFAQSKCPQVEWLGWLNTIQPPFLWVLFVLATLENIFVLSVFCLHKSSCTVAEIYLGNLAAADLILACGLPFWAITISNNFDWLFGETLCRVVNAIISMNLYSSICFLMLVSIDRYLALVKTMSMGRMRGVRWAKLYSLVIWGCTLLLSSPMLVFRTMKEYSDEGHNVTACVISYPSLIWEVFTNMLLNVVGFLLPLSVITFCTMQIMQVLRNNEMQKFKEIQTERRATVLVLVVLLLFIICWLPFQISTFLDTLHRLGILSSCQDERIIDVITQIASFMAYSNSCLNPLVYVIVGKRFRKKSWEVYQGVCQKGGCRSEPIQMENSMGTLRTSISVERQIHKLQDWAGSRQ",
  "data": [
    {"substance": "bradykinin bradykinin (from UniProt P01042)", "values": [
      {"measurement": "Kd", "result": 10, "unit": "nM"}
    ]}
  ]
}
